Test results from article PMC2742894, “Crystal Structure of the N-Acetylmannosamine Kinase Domain of GNE” (PLoS ONE, 2009).

Molecular target: the molecule itself
Assay: SEC; Superdex-200 10/300; GNE kinase domain at 6 mg per mL in 20 mM HEPES pH 7.5, 500 mM NaCl, 5 mM MgCl2, 1 mM TCEP; apparent molecular weight from a calibration curve

B1: N-acetylmannosamine kinase domain of UDP-GlcNAc 2-epimerase/N-acetylmannosamine kinase (GNE), residues 406-720 (domain or fragment, human, UniProt Q9Y223 406-720, looked up)
chain: TLSALAVDLGGTNLRVAIVSMKGEIVKKYTQFNPKTYEERINLILQMCVEAAAEAVKLNCRILGVGISTGGRVNPREGIVLHSTKLIQEWNSVDLRTPLSDTLHLPVWVDNDGNCAALAERKFGQGKGLENFVTLITGTGIGGGIIHQHELIHGSSFCAAELGHLVVSLDGPDCSCGSHGCIEAYASGMALQREAKKLHDEDLLLVEGMSVPKDEAVGALHLIQAAKLGNAKAQSILRTAGTALGLGVVNILHTMNPSLVILSGVLASHYIHIVKDVIRQQALSSVQDVDVVVSDLVDPALLGAASMVLDYTTRR
notes: UDP-GlcNAc 2-epimerase/N-acetylmannosamine kinase (GNE), human, kinase domain, residues 406-720; cDNA codon optimized for E. coli and synthesized; Cloned into pET28-MHL (gi:134105571); For crystallization 1:100 chymotrypsin (w/w) and 5 mM ADP were added to the protein stock, so the crystallized chain may be trimmed; residues 475-498 are not seen in the electron density; A …
  stoichiometry N: 2
